Reference: doi:10.1101/2020.03.25.007906 (bioRxiv, 2020)

Assays:
[1] = biological target: T1, purified recombinant drDnaB (Deinococcus radiodurans R1, UniProt Q9RWW6 1-448); assay: SPR
T1 sequence (looked up): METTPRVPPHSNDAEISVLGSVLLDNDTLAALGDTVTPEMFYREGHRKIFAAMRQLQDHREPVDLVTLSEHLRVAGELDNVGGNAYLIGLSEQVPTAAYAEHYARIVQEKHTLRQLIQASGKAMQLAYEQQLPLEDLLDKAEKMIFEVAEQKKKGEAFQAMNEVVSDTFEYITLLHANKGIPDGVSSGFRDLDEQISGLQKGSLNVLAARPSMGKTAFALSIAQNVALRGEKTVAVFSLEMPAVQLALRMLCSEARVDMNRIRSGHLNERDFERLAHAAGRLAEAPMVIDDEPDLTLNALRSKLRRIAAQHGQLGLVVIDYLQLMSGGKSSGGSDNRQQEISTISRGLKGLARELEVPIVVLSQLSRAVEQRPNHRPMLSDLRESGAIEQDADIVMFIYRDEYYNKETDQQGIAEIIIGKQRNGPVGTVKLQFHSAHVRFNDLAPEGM

[2] = biological target: T2, purified recombinant drDnaA (Deinococcus radiodurans R1, UniProt Q9RYE7 1-466); assay: SPR
T2 sequence (looked up): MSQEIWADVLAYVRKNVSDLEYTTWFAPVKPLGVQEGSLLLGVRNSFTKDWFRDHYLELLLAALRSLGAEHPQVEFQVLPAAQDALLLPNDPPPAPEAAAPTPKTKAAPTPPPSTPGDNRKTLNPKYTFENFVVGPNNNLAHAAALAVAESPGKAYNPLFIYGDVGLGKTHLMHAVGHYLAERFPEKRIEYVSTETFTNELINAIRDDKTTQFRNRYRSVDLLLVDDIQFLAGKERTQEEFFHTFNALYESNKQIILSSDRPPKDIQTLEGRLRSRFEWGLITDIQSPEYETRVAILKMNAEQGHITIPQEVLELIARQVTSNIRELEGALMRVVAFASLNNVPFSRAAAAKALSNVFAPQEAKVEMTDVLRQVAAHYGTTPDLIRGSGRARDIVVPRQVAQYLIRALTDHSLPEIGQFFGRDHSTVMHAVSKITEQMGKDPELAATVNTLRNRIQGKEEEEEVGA

B1: recombinant PprA (natural protein, Deinococcus radiodurans, UniProt O32504 1-300, looked up)
chain: MLPLAFLICSGHNKGSMARAKAKDQTDGIYAAFDTLMSTAGVDSQIAALAASEADAGTLDAALTQSLQEAQGRWGLGLHHLRHEARLTDDGDIEILTDGRPSARVSEGFGALAQAYAPMQALDERGLSQWAALGEGYRAPGDLPLAQLKVLIEHARDFETDWSAGRGETFQRVWRKGDTLFVEVARPASAEAALSDAAWDVIASIKDRAFQRELMRRSEKDGMLGALLGARHAGAKANLAQLPEAHFTVQAFVQTLSGAAARNAEEYRAALKTAAAALEEYQGVTTRQLSEVLRHGLRES
B1 was tested, and the Kd [1] was 0.971 µM and the Kd [2] was 0.541 µM.
